{"source": "patent US12428656B2", "about": "“Nitrilase mutant and application thereof in the synthesis of 1-cyanocyclohexyl acetic acid” (priority 2020, dated 2025)", "key": {"N#CCC1(C#N)CCCCC1 [1]": {"system": "N#CCC1(C#N)CCCCC1", "assay": "Kinetic parameters of the nitrilase, purified AcN-F168V (parent)", "format": "biochemical, Acidovorax facilis CCTCC NO: M 209044", "details": "other: AcN-F168V, pH 7.0, 20 mM phosphate buffer, 45° C., 6.75-40.49 mM substrate", "procedure": "(§1) The kinetic parameters of the purified protein in example 3 were determined, using 1-cyanocyclohexylacetonitrile as the substrate and the pure enzyme solutions of AcN-F168V, G180D, A205C, G180F, and G180D/A205C as the catalyst.\n(§2) 10 mL of the reaction system was as follows: the purified enzyme solution (165 U/g) was diluted 10 times with a pH 7.0, 20 mM phosphate buffer and the final concentration of the purified nitrilase was 0.2 mg/mL. The resulting enzyme solution was put into a reaction container, added with the substrate at final concentrations of 6.75-40.49 mM (6.75, 13.50, 20.24, 26.99, 33.74 and 40.49 mM, respectively) and added with a pH 7.0, 20 mM phosphate buffer as the reaction medium up to 10 mL, the reaction solution was reacted at 45° C. and 600 rpm for 5 min, 500 μL of the sample was taken out, 500 μL of 2 M HCl was added to terminate the reaction, and the concentration of 1-cyanocyclohexyl acetic acid in the reaction solution was determined by HPLC (The detection and analysis conditions are the same as that in example 4).\n(§3) Collected test data was used to conduct nonlinear fitting by Origin, thereby obtaining the Km value and Kcat value of the nitrilase E. coli BL21 (DE3)/pET-28b (+)-AcN-F168V and its combinatorial mutants E. coli BL21 (DE3)/pET-28b (+)-AcN-G180D, E. coli BL21 (DE3)/pET-28b (+)-AcN-G180F, E. coli BL21 (DE3)/pET-28b (+)-AcN-A205C and E. coli BL21 (DE3)/pET-28b (+)-AcN-G180D/A205C as shown in table 2."}, "N#CCC1(C#N)CCCCC1 [2]": {"system": "N#CCC1(C#N)CCCCC1", "assay": "Kinetic parameters of the nitrilase mutant G180F", "format": "biochemical, Acidovorax facilis CCTCC NO: M 209044", "details": "other: G180F, pH 7.0, 20 mM phosphate buffer, 45° C., 6.75-40.49 mM substrate", "procedure": "as §1, §2, §3"}, "[3]": {"target": "Acidovorax facilis CCTCC NO: M 209044 nitrilase AcN-F168V (SEQ ID No. 2) mutant G180D/A205C, SEQ ID No. 10 (Acidovorax facilis, UniProt Q1W2L4)", "assay": "Kinetic parameters of the nitrilase double mutant G180D/A205C", "format": "biochemical", "details": "pH 7.0, 20 mM phosphate buffer, 45° C.", "procedure": "as §1, §2, §3"}, "N#CCC1(C#N)CCCCC1 [4]": {"system": "N#CCC1(C#N)CCCCC1", "assay": "Kinetic parameters of the nitrilase mutant A205C", "format": "biochemical, Acidovorax facilis CCTCC NO: M 209044", "details": "other: A205C, pH 7.0, 20 mM phosphate buffer, 45° C., 6.75-40.49 mM substrate", "procedure": "as §1, §2, §3"}, "N#CCC1(C#N)CCCCC1 [5]": {"system": "N#CCC1(C#N)CCCCC1", "assay": "Kinetic parameters of the nitrilase mutant G180D", "format": "biochemical, Acidovorax facilis CCTCC NO: M 209044", "details": "other: G180D, pH 7.0, 20 mM phosphate buffer, 45° C., 6.75-40.49 mM substrate", "procedure": "as §1, §2, §3"}}, "data": [{"compound": "Acidovorax facilis CCTCC NO: M 209044 nitrilase AcN-F168V, SEQ ID No. 2 (Acidovorax facilis; F168V)", "values": [{"measurement": "Km", "setting": "N#CCC1(C#N)CCCCC1 [1]", "result": "16.25 ± 5.37", "unit": "mM"}, {"measurement": "Vmax", "setting": "N#CCC1(C#N)CCCCC1 [1]", "result": 1530, "unit": "µmol/min/mg"}, {"measurement": "kcat", "setting": "N#CCC1(C#N)CCCCC1 [1]", "result": 5573, "unit": "s⁻¹"}]}, {"compound": "Acidovorax facilis CCTCC NO: M 209044 nitrilase AcN-F168V (SEQ ID No. 2) mutant G180F, SEQ ID No. 6 (Acidovorax facilis; F168V/G180F)", "values": [{"measurement": "Km", "setting": "N#CCC1(C#N)CCCCC1 [2]", "result": "5.88 ± 1.58", "unit": "mM"}, {"measurement": "Vmax", "setting": "N#CCC1(C#N)CCCCC1 [2]", "result": 2350, "unit": "µmol/min/mg"}, {"measurement": "kcat", "setting": "N#CCC1(C#N)CCCCC1 [2]", "result": 7612, "unit": "s⁻¹"}]}, {"compound": "N#CCC1(C#N)CCCCC1", "note": "[1-cyanocyclohexylacetonitrile]", "values": [{"measurement": "Kcat", "setting": "[3]", "result": 24139, "unit": "s⁻¹"}, {"measurement": "Kcat/Km", "setting": "[3]", "result": 341.236, "unit": "M⁻¹ s⁻¹"}, {"measurement": "Vmax", "setting": "[3]", "result": "4.78 ± 0.73", "unit": "mmolmg^−1min^−1"}, {"measurement": "Km", "setting": "[3]; 6.75-40.49 mM substrate", "result": "19.7 ± 7.4", "unit": "mM"}]}, {"compound": "Acidovorax facilis CCTCC NO: M 209044 nitrilase AcN-F168V (SEQ ID No. 2) mutant A205C, SEQ ID No. 8 (Acidovorax facilis; A205C/F168V)", "values": [{"measurement": "Km", "setting": "N#CCC1(C#N)CCCCC1 [4]", "result": "3.40 ± 0.78", "unit": "mM"}, {"measurement": "Vmax", "setting": "N#CCC1(C#N)CCCCC1 [4]", "result": 1630, "unit": "µmol/min/mg"}, {"measurement": "kcat", "setting": "N#CCC1(C#N)CCCCC1 [4]", "result": 8317, "unit": "s⁻¹"}]}, {"compound": "Acidovorax facilis CCTCC NO: M 209044 nitrilase AcN-F168V (SEQ ID No. 2) mutant G180D, SEQ ID No. 4 (Acidovorax facilis; F168V/G180D)", "values": [{"measurement": "Km", "setting": "N#CCC1(C#N)CCCCC1 [5]", "result": "3.21 ± 1.41", "unit": "mM"}, {"measurement": "Vmax", "setting": "N#CCC1(C#N)CCCCC1 [5]", "result": 1980, "unit": "µmol/min/mg"}, {"measurement": "kcat", "setting": "N#CCC1(C#N)CCCCC1 [5]", "result": 6624, "unit": "s⁻¹"}]}]}
